Reference: US20190359693A1

Legend:
[1] = target: hemagglutinin (HA) of influenza A/PR8 H7N7-NY (H7N7) (influenza A virus); assay: cell-based or functional assay
[2] = target: hemagglutinin (HA) of influenza A/Aichi/2/68 (H3N2) (influenza A virus) (UniProt P03437); assay: cell-based or functional assay
[3] = target: hemagglutinin (HA) of influenza B/Florida/04/06 (Yamagata) (influenza B virus); assay: cell-based or functional assay
[4] = target: hemagglutinin (HA) of influenza A/Wisconsin/67/05 (H3N2) (influenza A virus); assay: cell-based or functional assay
[5] = target: hemagglutinin (HA) of influenza A/Mississippi/03/01 274H (H1N1) (influenza A virus); assay: cell-based or functional assay
[6] = target: hemagglutinin (HA) of influenza A/Christchurch/16/10 (H1N1) (influenza A virus); assay: cell-based or functional assay
[7] = target: hemagglutinin (HA) of influenza A/Common Teal/MPH11/08 (H10N3) (influenza A virus); assay: cell-based or functional assay
[8] = target: hemagglutinin (HA) of influenza A/Env/HK/MPU3156/05 (H1N2) (influenza A virus); assay: cell-based or functional assay
[9] = target: hemagglutinin (HA) of influenza A/Chick/Germany/N/49 (H10N7) (influenza A virus); assay: cell-based or functional assay
[10] = target: hemagglutinin (HA) of influenza B/Harbin/7/94 (Yamagata) (influenza B virus); assay: cell-based or functional assay
[11] = target: hemagglutinin (HA) of influenza A/Shanghai/2/13 (H7N9) (influenza A virus); assay: cell-based or functional assay
[12] = target: hemagglutinin (HA) of influenza B/Brisbane/60/08 (Victoria) (influenza B virus); assay: cell-based or functional assay
[13] = target: hemagglutinin (HA) of influenza B/Lee/40 (Old) (influenza B virus) (UniProt P03460); assay: cell-based or functional assay
[14] = target: hemagglutinin (HA) of influenza A/Brisbane/10/07 (H3N2) (influenza A virus); assay: cell-based or functional assay
[15] = target: hemagglutinin (HA) of influenza A/Great Cormorant/MP2934/04 (H9N2) (influenza A virus); assay: cell-based or functional assay
[16] = target: hemagglutinin (HA) of influenza A/Mallard/Astrakhan/263/1982 (H14N5) (influenza A virus); assay: cell-based or functional assay
[17] = target: hemagglutinin (HA) of influenza A/Taiwan/2/2013 (H6N1) (influenza A virus); assay: cell-based or functional assay
[18] = target: hemagglutinin (HA) of influenza A/WSN/33 (H1N1) (influenza A virus) (UniProt P03454); assay: cell-based or functional assay
[19] = target: hemagglutinin (HA) of influenza A/Env/MPK659/09 (H12N5) (influenza A virus); assay: cell-based or functional assay
[20] = target: hemagglutinin (HA) of influenza A/Guiyang/1/57 (H2N2) (influenza A virus); assay: cell-based or functional assay
[21] = target: hemagglutinin (HA) of influenza A/Eurasian Wigeon/MPG1884/09 (H6N1) (influenza A virus); assay: cell-based or functional assay
[22] = target: hemagglutinin (HA) of influenza A/Netherlands/219/2003 (H7N7) (influenza A virus); assay: cell-based or functional assay
[23] = target: hemagglutinin (HA) of influenza A/Anhui/1/13 (H7N9) (influenza A virus); assay: cell-based or functional assay
[24] = target: hemagglutinin (HA) of influenza A/Eurasian Wigeon/MPD411/07 (H6N8) (influenza A virus); assay: cell-based or functional assay
[25] = target: hemagglutinin (HA) of influenza A/Env/HK/MPU3156/05 (H2N2) (influenza A virus); assay: cell-based or functional assay
[26] = target: hemagglutinin (HA) of influenza A/Great Cormorant/MPB1683/06 (H4N6) (influenza A virus); assay: cell-based or functional assay
[27] = target: hemagglutinin (HA) of influenza A/Johannesburg/33/94 (H3N2) (influenza A virus); assay: cell-based or functional assay
[28] = target: hemagglutinin (HA) of influenza A/Northern Pintail/MPB1368/06 (H4N1) (influenza A virus); assay: cell-based or functional assay
[29] = target: hemagglutinin (HA) of influenza A/Northern Pintail/MPC2085/07 (H11N9) (influenza A virus); assay: cell-based or functional assay
[30] = target: hemagglutinin (HA) of influenza A/Eurasian Wigeon/MPH571/08 (H8N4) (influenza A virus); assay: cell-based or functional assay
[31] = target: hemagglutinin (HA) of influenza A/California/07/09 (H1N1) (influenza A virus); assay: cell-based or functional assay
[32] = target: hemagglutinin (HA) of influenza A/Fukui/45/04 (H3N2) (influenza A virus); assay: cell-based or functional assay
[33] = target: hemagglutinin (HA) of influenza A/Common Teal/MPF139/07 (H7N7) (influenza A virus); assay: cell-based or functional assay
[34] = target: hemagglutinin (HA) of influenza A/Panama/2007/99 (H3N2) (influenza A virus); assay: cell-based or functional assay
[35] = target: hemagglutinin (HA) of influenza A/New Caledonia/20/99 (H1N1) (influenza A virus); assay: cell-based or functional assay
[36] = target: hemagglutinin (HA) of influenza A/Brisbane/59/07 (H1N1) (influenza A virus); assay: cell-based or functional assay
[37] = target: recombinant HA of H1N1 A/Brisbane/59/07 (influenza A virus); assay: biolayer interferometry (Octet), steady-state fit, geometric mean, pH 7.4
[38] = target: recombinant HA of H3N2 A/Wisconsin/67/05 (influenza A virus); assay: as above
[39] = target: recombinant HA of H7N3 A/NIBRG/60 (A/mallard/NL/12/00) (influenza A virus); assay: as above
[40] = target: recombinant HA of H3N2 A/HK/1/68-MA (influenza A virus); assay: as above
[41] = target: recombinant HA of B/Brisbane/60/08 (Victoria) (influenza B virus); assay: as above
[42] = target: recombinant HA of H7N9 A/Hangzhou/1/2013 (influenza A virus); assay: as above

In the case of MD3606 (Fc fusion), the Average neutralization titers [1] is reported as 8.1 nM, the Average neutralization titers [2] is reported as 32.2 nM and the ADCC induction (EC50 grade, FcγRIIIa reporter bioassay) [3] is reported as under 0.1 µg/mL. It also gave an Average neutralization titers [3] of 1 nM, an ADCC induction (EC50 grade, FcγRIIIa reporter bioassay) [4] of under 0.1 µg/mL and an Average neutralization titers [4] of 6.5 nM. For the same substance, the Average neutralization titers [5] was 4.7 nM, the Average neutralization titers [6] was 1 nM and the Average neutralization titers [7] was 11.3 nM. For the same substance, the Average neutralization titers [8] was 2.6 nM, the Average neutralization titers [9] was 10.2 nM and the Average neutralization titers [10] was 1 nM. The Average neutralization titers [11] was 22.8 nM, the ADCC induction (EC50 grade, FcγRIIIa reporter bioassay) [12] was under 0.1 µg/mL and the Average neutralization titers [12] was 1 nM. The Average neutralization titers [13] was 3.3 nM, the Average neutralization titers [14] was 4.1 nM and the Average neutralization titers [15] was 9.7 nM. The Average neutralization titers [16] was 12.9 nM, the Average neutralization titers [17] was 14.5 nM and the Average neutralization titers [18] was 2 nM. For the same substance, the Average neutralization titers [19] was over 1000 nM, the Average neutralization titers [20] was 26.7 nM and the Average neutralization titers [21] was 11.6 nM. For the same substance, the Average neutralization titers [22] was 20.4 nM, the Average neutralization titers [23] was 38.2 nM and the Average neutralization titers [24] was 9.7 nM. The Average neutralization titers [25] was 9.3 nM, the Average neutralization titers [26] was 3.1 nM and the Average neutralization titers [27] was 8.1 nM. The Average neutralization titers [28] was 2.6 nM, the Average neutralization titers [29] was 7.2 nM and the Average neutralization titers [30] was 3.7 nM. It also gave an Average neutralization titers [31] of 1.8 nM, an Average neutralization titers [32] of 40.5 nM and an Average neutralization titers [33] of 26.3 nM. For the same substance, the Average neutralization titers [34] was 40.5 nM, the Average neutralization titers [35] was 2.6 nM and the Average neutralization titers [36] was 5.3 nM. It also gave a Kd [37] of 2.2 nM, a Kd [38] of 0.6 nM and a Kd [39] of 1.1 nM. The Kd [40] was 1.4 nM, the Kd [41] was 3.8 nM and the Kd [42] was 1.2 nM.
